Assay results as given in patent publication US20170173114A1, “METHODS AND COMPOSITIONS FOR INDUCTION OF UCP1 EXPRESSION” (Joslin Diabetes Center, Inc., priority 2014, published 2017).

How the values were obtained:
UCP1 and PTGS2 = UCP1 and PTGS2 mRNA in WT-1 cells undergoing adipocyte differentiation; type: cell-based, murine; details: after induction media; 200 ng/mL FGF or 3.3 nM BMP7, 2 days
Protocol: In a separate experiment investigating the ability of FGF proteins to induce UCP1 expression in cells undergoing adipocyte differentiation, WT-1 preadipocyte cells were differentiated by culturing in growth media supplemented with insulin (20 nM) and triiodothyronine (T3, 1 nM) for 3 days, followed by incubation in an induction media (growth medium supplemented 20 nM insulin, 1 nM T3, 0.5 mM isobutyl-methylxanthine, 5 μM dexamethasone) for 2 days. The cell were then exposed to BMP7 (3.3 nM) or 200 ng/mL of FGF2, FGF6 or, FGF9 in growth media supplemented with insulin (20 nM) and triodothyronine (T3, 1 nM) for 2 additional days. Cells were harvested and UCP1 and PTGS2 mRNA expression levels were determined according to the quantitative RT-PCR assay described above. Experiments were performed in triplicate and the data presented as mean+/−SEM.

UCP1 protein = UCP1 protein in WT-1 cells (immunofluorescent staining, Western blot); type: cell-based, murine; details: for UCP1 protein, immunofluorescent staining: relative to control cells
Protocol: Cells were harvested in lysis buffer (50 mM HEPES, 137 mM NaCl, 1 mM MgCl2, 1 mM CaCl2, 10 mM Na2P2O7, 10 mM NaF, 2 mM EDTA, 10% glycerol, 1% Igepal CA-630, 2 mM vanadate, 10 μg/ml of leupeptin, 10 μg/ml of aprotinin, 2 mM phenylmethylsulfonyl fluoride; pH 7.4). After lysis, lysates were clarified by centrifugation at 12,000×g for 20 min at 4° C., the amount of protein in the supernatants was determined by the Bradford Protein Assay (Bio-Rad Laboratories, Hercules, Calif.). Proteins were directly solubilized in Laemmli sample buffer. Equal amounts of lysates were separated by sodium dodecyl sulfate-polyacrylamide gel electrophoresis and transferred to Immobolin-P membranes. Membranes were blocked overnight at 4° C. and incubated with the indicated antibody for 2 hours at room temperature. Specifically bound primary antibodies were detected with peroxidase-coupled secondary antibody and enhanced chemiluminescence (ECL, Amersham Biosciences, Piscataway, N.J.).
The effect of FGF6 on differentiation of WT-1 murine brown preadipocytes was also examined. WT-1 cells can be induced to undergo brown adipocyte differentiation, characterized by lipid accumulation and expression of adipogenic and brown fat markers, as described above (Klein et al. (1999) J Biol Chem 274:34795; Tseng et al. (2005) Nat Cell Biol 7:601). WT-1 cells were treated with FGF6 in growth media (DMEM+10% FBS), a vehicle control (“control” or “C” referred to in FIGS. 3A-D), or induction media (“induction” or “I” referred to in FIGS. 3A-D) as described above for seven days. Following the treatment, cells were examined for the color of the culture media in combination with oil Red O staining, expression of adipogenic markers, expression of brown fat markers, immunofluorescent staining of cells with UCP1 and DPAI, and Western blot analysis to determine the presence of UCP1 and β-tubulin. The results are described in FIGS. 3A to 3D.
FGF2, FGF6 and FGF9 were used at a dosage of 200 ng/mL. Cells were stained using immunofluorescent stains for UCP1 and DAPI (which binds to DNA).

B1: FGF6: fibroblast growth factor 6; recombinant human FGF from R&D Systems, or mouse FGF6 cDNA overexpressed by lentiviral vector (protein)
chain: KRQRRLYCNVGIGFHLQVLPDGRISGTHEENPYSLLEISTVERGVVSLFGVRSALFVAMNSKGRLYATPSFQEECKFRETLLPNNYNAYESDLYQGTYIALSKYGRVKRGSKVSPIMTVTHFLPRI
PTGS2 mRNA expression in cells undergoing adipocyte differentiation (UCP1 and PTGS2): able to induce | UCP1 mRNA expression in cells undergoing adipocyte differentiation (UCP1 and PTGS2): able to induce | UCP1 protein, immunofluorescent staining (UCP1 protein; WT-1, 200 ng/mL with insulin 20 nM and T3 1 nM): significant levels of staining | UCP1 protein, Western blot (UCP1 protein; WT-1, seven days): present | UCP1 protein, immunofluorescent staining (UCP1 protein; WT-1, seven days): significant levels of staining
